Literature values as cited in US8168409B2, “Compositions and methods relating to anti-IGF-1 receptor antibodies” (Amgen Inc., priority 2004, dated 2012).

Target: IGF-1R (Homo sapiens, UniProt P08069)
Conditions: biphasic binding; high affinity component

- Kd: ~0.2 nM
Substance: IGF-2: insulin-like growth factor 2, ligand of IGF-1R
